The source of these data is US8894997B2.

pKd: −log10 of the molar value. A value given as a limit tells only on which side of the number the result lay.

In assay [1] the target is 1918 HA displayed on virus-like particles, reconstituted 1918 virus or transfected mammalian cells (influenza A/South Carolina/1/18 (H1N1) virus).
In assay [2] the target is HA of A/Mexico/4108/2009 virus (influenza A/Mexico/4108/2009 (H1N1) virus).
The target in assay [3] is Recombinant A/South Carolina/1/1918 virus HA (influenza A/South Carolina/1/18 (H1N1) virus).
For assay [4], the target named is 1918 HA displayed on virus-like particles, reconstituted 1918 virus or transfected mammalian cells (influenza A/South Carolina/1/18 (H1N1) virus). This is another data set of the same source.
For assay [5], the target named is HA of influenza A/Swine/Iowa/15/30 (H1N1) virus (influenza A/Swine/Iowa/15/30 (H1N1) virus).
In assay [6] the target is HA of influenza A/USSR/92/77 (H1N1) virus (influenza A/USSR/92/77 (H1N1) virus).
Assay [7] addresses HA of influenza A/Weiss/43 (H1N1) virus (influenza A/Weiss/43 (H1N1) virus).

For the substance “Normal mouse serum (polyclonal serum or antibody)”, the HAI, reciprocal titer of serum (reciprocal titer) in assay [1] and in assay [2] was below 10 throughout.
mAb 1F1 (antibody): in assay [3], the pKd – broadly, the negative decadic logarithm of the Kd, by convention in mol/L – is 8.27. Moreover, the koff – broadly, the rate constant with which the complex falls apart – in assay [3] was determined as 0.00017 s⁻¹. Further, the kon – broadly, the rate constant with which the complex forms – in assay [3] was 31000 M⁻¹ s⁻¹. Besides, the Specific HAI activity was 0.08 µg/mL in assay [4], 0.04 µg/mL in assay [5] and 0.16 µg/mL in assay [6]. The HAI, specific activity in assay [1] was 0.04 µg/mL; in assay [2], above 5 µg/mL. Besides, in assay [2], the Neut Ab, specific activity is above 5 µg/mL. Moreover, the values for the specific neutralizing activity in assay [6] and in assay [7] were 0.88 µg/mL and 1.8 µg/mL, respectively.
